Data: patent US20150017651A1 (University of Texas, published 2015)

Assays:
flag-tagged Gli1S84E = biological target: T1, flag-tagged Gli1S84E (human, UniProt P08151 1-1106); assay: IP-Western, flag-tagged Gli1S84E transfected into BE3 cells
T1 construct: not shown: flag tag from vector p3flag-CMV10
T1 sequence (looked up): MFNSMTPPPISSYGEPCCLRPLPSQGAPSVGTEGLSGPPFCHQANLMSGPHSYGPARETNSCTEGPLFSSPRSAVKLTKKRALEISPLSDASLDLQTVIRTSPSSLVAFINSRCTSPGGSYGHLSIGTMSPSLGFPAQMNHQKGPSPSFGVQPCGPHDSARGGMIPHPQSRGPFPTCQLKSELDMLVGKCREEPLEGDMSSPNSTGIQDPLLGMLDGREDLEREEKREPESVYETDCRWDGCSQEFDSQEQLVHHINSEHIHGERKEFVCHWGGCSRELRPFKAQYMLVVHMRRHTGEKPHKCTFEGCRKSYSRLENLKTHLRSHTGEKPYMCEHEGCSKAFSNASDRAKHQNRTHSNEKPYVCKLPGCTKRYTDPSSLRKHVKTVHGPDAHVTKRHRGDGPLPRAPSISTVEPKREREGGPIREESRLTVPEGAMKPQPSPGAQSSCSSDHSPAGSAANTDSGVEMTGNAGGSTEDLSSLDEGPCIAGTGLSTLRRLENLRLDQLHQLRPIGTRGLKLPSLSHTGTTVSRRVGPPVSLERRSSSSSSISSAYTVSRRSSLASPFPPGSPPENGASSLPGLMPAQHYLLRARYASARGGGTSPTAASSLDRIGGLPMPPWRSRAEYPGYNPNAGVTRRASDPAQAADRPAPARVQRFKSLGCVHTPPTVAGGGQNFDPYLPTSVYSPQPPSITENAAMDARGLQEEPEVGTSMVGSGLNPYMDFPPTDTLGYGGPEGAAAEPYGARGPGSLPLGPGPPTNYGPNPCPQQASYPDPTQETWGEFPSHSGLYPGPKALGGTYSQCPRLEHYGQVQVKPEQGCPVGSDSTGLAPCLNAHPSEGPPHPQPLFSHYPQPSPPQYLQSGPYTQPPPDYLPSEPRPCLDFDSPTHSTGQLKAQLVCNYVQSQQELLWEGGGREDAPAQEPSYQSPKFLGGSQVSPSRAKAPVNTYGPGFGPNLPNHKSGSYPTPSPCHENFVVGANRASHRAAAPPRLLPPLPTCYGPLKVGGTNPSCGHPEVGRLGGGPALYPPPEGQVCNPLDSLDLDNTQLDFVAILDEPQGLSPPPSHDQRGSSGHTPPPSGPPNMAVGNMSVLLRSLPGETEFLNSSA
Description: FIGS. 13A-13K. related to FIG. 5. […] FIG. 13A. Luciferase assay of Gli reporter in the stable clones treated by TNFα alone (5 ng/mL) or TNFα plus rapamycin (100 nM). Error bars represent SD (n=3). FIG. 13B. Gli1 immunofluorescence staining in several BE3 stable clones with TNFα treatment. Scale bar=100 μm for original picture and 25 μm for inset. FIG. 13C. The regulation of p-Gli1 by TNFα alone or together with rapamycin (10, 50, and 100 nM) in the BE3 stable clone. FIG. 13D. MTT assay of the various Gli1 stable clones. All cells were counted, and then 3,000 cells were seeded in each well of a 96-well plate. Error bars represent SD (n=3). FIG. 13E. Soft-agar assay of the various Gli1 stable clones. All cells were counted, and then 1,000 cells were mixed with agarose for each well of a 24-well plate. Left, representative microscopic images. Right, quantitation of colony formation. Error bars represent SD (n=3). FIG. 13F. Invasion assay of the various Gli1 stable clones. All cells were counted, and then 1,000 cells were seeded on matrigel in transwells. Left, representative microscopic images from the bottom side of transwell membranes. Right, quantitation of invasive cells. Error bars represent SD (n=3). FIGS. 13G-13I. The assays of MTT (G), soft agar (H), and invasion (I) using the BE3 stable clones treated with TNFα.

[1] = biological target: T2, flag-tagged wild-type Gli1 (human, UniProt P08151 1-1106); assay: IP-Western, flag-tagged Gli1WT transfected into BE3 cells
T2 construct: Transiently expressed in BE3 cells without TNFα stimulation; also called flag-Gli1WT; flag-Gli1; not shown: flag tag from vector p3flag-CMV10
T2 sequence (looked up): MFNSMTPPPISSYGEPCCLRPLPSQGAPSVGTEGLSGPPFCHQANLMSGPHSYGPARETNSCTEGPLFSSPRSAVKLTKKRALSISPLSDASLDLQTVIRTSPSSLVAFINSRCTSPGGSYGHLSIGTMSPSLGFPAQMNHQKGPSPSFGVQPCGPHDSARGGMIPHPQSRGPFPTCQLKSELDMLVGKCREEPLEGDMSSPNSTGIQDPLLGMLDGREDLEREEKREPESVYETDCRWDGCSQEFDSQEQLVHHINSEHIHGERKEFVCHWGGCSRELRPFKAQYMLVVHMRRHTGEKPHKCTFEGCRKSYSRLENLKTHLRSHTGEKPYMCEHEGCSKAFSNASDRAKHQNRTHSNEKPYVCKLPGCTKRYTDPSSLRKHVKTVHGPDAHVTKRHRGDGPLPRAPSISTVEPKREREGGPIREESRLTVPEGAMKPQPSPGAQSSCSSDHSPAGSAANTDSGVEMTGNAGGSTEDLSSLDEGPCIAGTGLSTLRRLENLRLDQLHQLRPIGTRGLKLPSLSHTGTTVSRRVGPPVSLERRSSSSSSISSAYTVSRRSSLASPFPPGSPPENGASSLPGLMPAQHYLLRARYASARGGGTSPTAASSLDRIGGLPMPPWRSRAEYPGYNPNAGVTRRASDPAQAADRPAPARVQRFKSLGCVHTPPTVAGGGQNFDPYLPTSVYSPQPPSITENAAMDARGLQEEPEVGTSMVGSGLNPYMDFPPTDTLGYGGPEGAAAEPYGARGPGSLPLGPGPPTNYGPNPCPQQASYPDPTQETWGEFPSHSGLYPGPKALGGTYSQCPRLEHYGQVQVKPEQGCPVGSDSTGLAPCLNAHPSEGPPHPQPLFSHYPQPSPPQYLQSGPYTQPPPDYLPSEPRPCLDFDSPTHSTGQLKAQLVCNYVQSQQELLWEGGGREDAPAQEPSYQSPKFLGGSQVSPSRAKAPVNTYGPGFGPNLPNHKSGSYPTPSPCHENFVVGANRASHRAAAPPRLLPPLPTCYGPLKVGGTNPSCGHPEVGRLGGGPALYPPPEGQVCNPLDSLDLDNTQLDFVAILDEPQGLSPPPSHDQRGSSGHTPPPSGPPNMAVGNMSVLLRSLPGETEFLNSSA

binding result (flag-tagged Gli1S84E): binds | binding result [1]: binds
B1: SuFu (other, human, UniProt Q9UMX1 1-484, looked up)
chain: MAELRPSGAPGPTAPPAPGPTAPPAFASLFPPGLHAIYGECRRLYPDQPNPLQVTAIVKYWLGGPDPLDYVSMYRNVGSPSANIPEHWHYISFGLSDLYGDNRVHEFTGTDGPSGFGFELTFRLKRETGESAPPTWPAELMQGLARYVFQSENTFCSGDHVSWHSPLDNSESRIQHMLLTEDPQMQPVQTPFGVVTFLQIVGVCTEELHSAQQWNGQGILELLRTVPIAGGPWLITDMRRGETIFEIDPHLQERVDKGIETDGSNLSGVSAKCAWDDLSRPPEDDEDSRSICIGTQPRRLSGKDTEQIRETLRRGLEINSKPVLPPINPQRQNGLAHDRAPSRKDSLESDSSTAIIPHELIRTRQLESVHLKFNQESGALIPLCLRGRLLHGRHFTYKSITGDMAITFVSTGVEGAFATEEHPYAAHGPWLQILLTEEFVEKMLEDLEDLTSPEEFKLPKEYSWPEKKLKVSILPDVVFDSPLH
notes: also called suppressor of fused
